Values of other authors, collected in article PMC3140970.

Molecular target: IRSp53 SH3 (UniProt Q9UQB8)
Sequence (Q9UQB8 374-437): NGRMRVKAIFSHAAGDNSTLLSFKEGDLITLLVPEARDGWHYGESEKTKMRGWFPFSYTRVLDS

Chain of Eps8 (Q08509 whole entry): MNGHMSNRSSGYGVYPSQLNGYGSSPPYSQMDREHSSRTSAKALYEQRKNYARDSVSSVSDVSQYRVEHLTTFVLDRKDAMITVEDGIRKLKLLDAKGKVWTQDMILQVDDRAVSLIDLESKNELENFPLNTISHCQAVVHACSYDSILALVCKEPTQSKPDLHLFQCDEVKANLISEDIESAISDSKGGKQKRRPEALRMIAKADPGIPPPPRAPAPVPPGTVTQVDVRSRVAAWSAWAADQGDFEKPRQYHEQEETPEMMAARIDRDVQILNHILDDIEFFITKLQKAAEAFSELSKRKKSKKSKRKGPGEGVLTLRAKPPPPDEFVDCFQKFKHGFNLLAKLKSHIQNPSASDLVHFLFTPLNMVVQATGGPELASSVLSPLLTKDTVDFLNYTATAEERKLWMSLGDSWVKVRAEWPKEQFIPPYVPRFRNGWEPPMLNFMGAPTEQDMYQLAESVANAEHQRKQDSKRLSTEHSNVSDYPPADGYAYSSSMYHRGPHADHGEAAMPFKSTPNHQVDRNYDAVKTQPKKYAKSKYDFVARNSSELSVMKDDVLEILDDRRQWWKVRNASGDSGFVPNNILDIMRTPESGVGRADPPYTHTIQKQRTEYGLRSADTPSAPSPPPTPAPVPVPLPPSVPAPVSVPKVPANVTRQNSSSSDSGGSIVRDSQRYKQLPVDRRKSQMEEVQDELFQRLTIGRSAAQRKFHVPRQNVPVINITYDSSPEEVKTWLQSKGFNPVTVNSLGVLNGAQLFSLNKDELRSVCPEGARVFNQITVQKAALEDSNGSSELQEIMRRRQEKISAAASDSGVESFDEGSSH

In the case of Eps8 (from UniProt Q08509), the Kd is given as 10 nM.
